Measurements as given in PMC5414179, “Functional characterization of a multi-cancer risk locus on chr5p15.33 reveals regulation of TERT by ZNF148”.

Molecular target: T1, ZNF148 (ZBP-89), recombinant (Homo sapiens, UniProt Q9UQR1 1-794)
T1 sequence: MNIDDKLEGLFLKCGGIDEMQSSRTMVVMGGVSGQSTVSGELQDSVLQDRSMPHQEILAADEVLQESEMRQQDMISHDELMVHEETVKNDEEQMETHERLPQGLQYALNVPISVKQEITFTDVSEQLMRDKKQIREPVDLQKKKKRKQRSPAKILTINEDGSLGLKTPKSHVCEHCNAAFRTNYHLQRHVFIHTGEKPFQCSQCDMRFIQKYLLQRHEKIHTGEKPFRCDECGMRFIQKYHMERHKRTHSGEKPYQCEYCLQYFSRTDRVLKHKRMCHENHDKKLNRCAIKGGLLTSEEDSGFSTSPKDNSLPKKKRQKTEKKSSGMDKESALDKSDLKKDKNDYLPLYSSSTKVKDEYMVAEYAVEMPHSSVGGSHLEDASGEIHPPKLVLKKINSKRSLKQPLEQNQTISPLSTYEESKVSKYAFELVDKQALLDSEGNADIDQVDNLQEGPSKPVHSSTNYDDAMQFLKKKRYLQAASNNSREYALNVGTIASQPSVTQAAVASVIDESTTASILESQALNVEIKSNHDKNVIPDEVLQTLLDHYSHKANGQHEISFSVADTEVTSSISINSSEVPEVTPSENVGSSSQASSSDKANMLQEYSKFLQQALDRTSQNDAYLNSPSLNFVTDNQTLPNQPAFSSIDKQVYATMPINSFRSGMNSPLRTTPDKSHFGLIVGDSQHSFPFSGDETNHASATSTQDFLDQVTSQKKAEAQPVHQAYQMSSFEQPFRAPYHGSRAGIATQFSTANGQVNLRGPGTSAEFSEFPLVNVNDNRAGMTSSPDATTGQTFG
Experiment: EMSA; positive control; EMSA: 10 ug nuclear extract or 90-630 ng recombinant ZNF148 with 3'-biotin probe, 20 min on ice, 4-20% TBE gel; antibody preincubation 20 min at room temperature; buffer, salt and pH not stated
Conditions: protein: commercial; label: 3' biotin; blunt

B1: ZNF148 binding motif, CDKN1A/p21 promoter (dsDNA)
DNA 1: CGCAGGCGAGGGACTGGGGGAGGAGGGAAGTGCCC
DNA 2: GGGCACTTCCCTCCTCCCCCAGTCCCTCGCCTGCG
binding result: binds
